According to publication PMC5963871, “Regulation and function of H3K36 di-methylation by the trithorax-group protein complex AMC” (Development (Cambridge, England), 2018):

T1: Drosophila Ash1_(XL-SET) (Ash1_(1275-1522)) (Drosophila, UniProt Q9VW15 1275-1522)
T1 sequence (looked up): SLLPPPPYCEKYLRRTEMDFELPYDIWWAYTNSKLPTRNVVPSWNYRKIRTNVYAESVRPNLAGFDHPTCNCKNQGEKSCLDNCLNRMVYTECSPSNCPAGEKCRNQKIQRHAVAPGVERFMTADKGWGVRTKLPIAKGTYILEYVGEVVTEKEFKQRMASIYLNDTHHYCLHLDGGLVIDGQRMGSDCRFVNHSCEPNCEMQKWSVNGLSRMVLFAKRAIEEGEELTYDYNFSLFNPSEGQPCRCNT

B1: Drosophila full-length MRG15 (E. coli) (natural protein, UniProt Q9Y0I1 1-424, looked up)
chain: MGEVKPAKVENYSTGTDANTLFVDGERVLCFHGPLIYEAKVLKTKPDATPVEYYIHYAGWSKNWDEWVPENRVLKYNDDNVKRRQELARQCGERSKKDNKKGSAKAKKMEQMRNESRASTPSKDSNTSQSTASSTPTTSAGPGSKSEAGSTGTTTTNSTANSTTSRAHRKSTQSTPSTARPGTPSDKKEDPAAAETTEEEGPVAPKKKRMSEQRPSLTGSDVAEKPLPPTTTPSTPTTEPAPCVESEEAYAAKVEVKIKIPDELKHYLTDDWYAVVREHKLLELPAKVTVQQISEQYLAHKKSVKSTSASKEVAINDVLDGIVEYFNVMLGSQLLYKFERTQYADVMQKHPDTPLSELYGSFHLLRLFVRLGSMLSYSALDQQSMQNLLTHVQDFLKFLVKNSSIFFSMSNFINVDPEYVRNAQ
B2: MRG domain of human MRG15 (MRG15_(151-362), MRG15MRG) (domain or fragment)
chain: KNKQKTPGNGDGGSTSETPQPPRKKRARVDPTVENEETFMNRVEVKVKIPEELKPWLVDDWDLITRQKQLFYLPAKKNVDSILEDYANYKKSRGNTDNKEYAVNEVVAGIKEYFNVMLGTQLLYKFERPQYAEILADHPDAPMSQVYGAPHLLRLFVRIGAMLAYTPLDEKSLALLLNYLHDFLKYLAKNSATLFSASDYEVAPPEYHRKAV

Assays:
[1] = molecular target: T1, Drosophila Ash1_(XL-SET) …; experiment: cell-based or functional assay
[2] = molecular target: human ASH1L_(XL-SET) (ASH1L_(2035-2288)) (human, UniProt Q9NR48 2035-2288); experiment: cell-based or functional assay

Binder | HMTase activity on recombinant oligonucleosome arrays (methyl-3H incorporation into histone H3, fluorography): Ash1_(XL-SET):MRG15 complex compared with Ash1_(XL-SET) alone [1] [fold] | HMTase activity on recombinant oligonucleosome arrays (methyl-3H incorporation into histone H3, fluorography): ASH1L_(XL-SET):MRG15MRG complex compared with ASH1L_(XL-SET) alone [2] [fold]
B1 | ~30 | –
B2 | – | ~7
